# Values of other authors in PMC11589041.
# pKd: −log10 of the molar value. “And” between values parts separate entries of the source, which are not always exact repeats. Equal values may be shown once.
# Tests used:
# [1] = molecular target: mDia1 DAD DAD (Mus musculus) (UniProt O08808)
# [2] = molecular target: INF2 DAD DAD (Homo sapiens) (UniProt Q27J81)
# INF2 DAD DAD (Homo sapiens), sequence (Q27J81 967-1000): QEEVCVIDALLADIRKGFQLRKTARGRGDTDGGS
# INF2 DID DID, sequence (Q27J81 1-267): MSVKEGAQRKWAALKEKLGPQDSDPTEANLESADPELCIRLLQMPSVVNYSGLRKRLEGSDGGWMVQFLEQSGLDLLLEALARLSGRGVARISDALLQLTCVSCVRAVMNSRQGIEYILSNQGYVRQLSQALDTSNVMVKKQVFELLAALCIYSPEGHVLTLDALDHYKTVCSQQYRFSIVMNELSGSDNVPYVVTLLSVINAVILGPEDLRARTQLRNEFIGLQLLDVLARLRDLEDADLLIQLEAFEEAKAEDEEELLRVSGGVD
# mDia1 DAD DAD (Mus musculus), sequence (O08808 1174-1208): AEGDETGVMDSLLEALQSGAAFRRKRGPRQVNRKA
# mDia1 DID DID, sequence (O08808 129-369): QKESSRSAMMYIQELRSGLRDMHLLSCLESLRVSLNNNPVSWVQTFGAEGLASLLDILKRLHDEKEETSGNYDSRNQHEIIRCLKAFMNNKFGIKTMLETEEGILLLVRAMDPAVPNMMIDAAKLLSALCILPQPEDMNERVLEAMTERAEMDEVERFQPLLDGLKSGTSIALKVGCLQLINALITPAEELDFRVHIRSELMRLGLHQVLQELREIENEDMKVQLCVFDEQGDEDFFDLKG
pKd [1],pKd [2],Substance
6.58,–,mDia1 DID DID (from UniProt O08808)
–,4.66 and 5.27,INF2 DID DID (from UniProt Q27J81)
